T1: human CD34 surface antigen on KG1a cells (human, UniProt P28906 32-385)
T1 construct: whole, on cells; The target was always presented on KG1a cells; No recombinant CD34 was used; also called surface antigen CD34; CD34 antigen
T1 sequence (looked up): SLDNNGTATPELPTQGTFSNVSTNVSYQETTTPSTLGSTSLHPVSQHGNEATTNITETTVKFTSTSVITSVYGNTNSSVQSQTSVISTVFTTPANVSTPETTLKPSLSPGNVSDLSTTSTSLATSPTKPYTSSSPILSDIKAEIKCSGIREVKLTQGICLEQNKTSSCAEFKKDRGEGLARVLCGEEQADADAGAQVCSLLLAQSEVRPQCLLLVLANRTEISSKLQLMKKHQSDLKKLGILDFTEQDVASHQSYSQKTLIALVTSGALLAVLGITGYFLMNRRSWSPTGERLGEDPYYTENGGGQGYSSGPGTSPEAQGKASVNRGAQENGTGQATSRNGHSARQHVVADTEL

B1: humanized My10 IgG (hMy10 IgG) (antibody, V domains shown)
VH: EVQLVESGGGLVQPGGSLRLSCAVSGFSLTSHGVHWVRQAPGKGLEWLGVIWGAGRTDYNAAFISRLSISRDISKSQVYLQMNSLRAEDTAVYYCARNRYESYFDYWGQGTLVTVSS
VL: DIQMTQSPSSLSASVGDRVTITCRSSQNLVHSNGNTYLHWYQQKPGKAPKLLIYKVSNRFSGVPDRFSGSGSGTEFTLTISSLQPEDFATYYCSQSTHVPLTFGQGTKVEIKR
notes: also called humanized My10 (hMy10) IgG1; humanized anti-human CD34 monoclonal antibody

Target: T1, human CD34 surface antigen on KG1a cells
Assay: flow cytometry, antibody titration on CD34+ KG1a cells
Experimental: KG1a cells expressing the surface antigen CD34 were used for determining the antibody binding affinity. The antibody in aliquots were individually added into KG1a cells (about 1×10⁶ cells) and reacted at 4° C. for 1 hour. The cells were washed with the FACS buffer (DPBS buffer with 2% fetus bovine serum) three times and then treated with the goat anti-mouse IgG (H+L) Alexa Fluor 488 responsive to mMy10 IgG and the goat anti-human IgG (H+L) Alexa Fluor 647 responsive to hMy10 IgG at 4° C. for 1 hour. The cells were further washed with the FACS buffer and analyzed under the FACSCalibur flow cytometer.
For determining the binding affinity of hMy10 IgG and mMy10 IgG to the surface antigen CD34 of human stem cells, a KG1a cell line was used as the cell expressing the surface antigen CD34.

| Molecule | Kd [nM] |
| --- | --- |
| anti-My10 murine monoclonal antibody (mMy10 IgG) | 6.7 |
| B1 | 6.9 |

Reference: patent US20130172533A1 (INDUSTRIAL TECHNOLOGY RESEARCH INSTITUTE, published 2013)
